Kd(1), first binding event (macroscopic), cooperativity factor α2 (second binding event) and cooperativity factor α3 (third binding event) data for one substance are collected here from paper PMC3289903.

In this experiment the target is recombinant Tp0956 (non-lipidated, residues 2-302) (Treponema pallidum). Put plainly: AUC.
recombinant Tp0956 (non-lipidated, residues 2-302) (Treponema pallidum), sequence (O83922 23-323 limits assumed): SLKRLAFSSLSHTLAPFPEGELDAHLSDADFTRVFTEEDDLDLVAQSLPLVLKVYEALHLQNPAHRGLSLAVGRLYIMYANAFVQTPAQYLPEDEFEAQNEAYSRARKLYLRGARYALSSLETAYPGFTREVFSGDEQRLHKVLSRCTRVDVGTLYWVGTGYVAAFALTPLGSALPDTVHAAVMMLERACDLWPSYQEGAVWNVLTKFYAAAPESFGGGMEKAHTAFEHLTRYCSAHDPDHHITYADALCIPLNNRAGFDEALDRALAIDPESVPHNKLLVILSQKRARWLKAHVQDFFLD

Consider “recombinant Tp0957 (non-lipidated, residues 7-328) (natural protein)”, for which the Kd(1), first binding event (macroscopic) turned out to be 60 nM; the cooperativity factor α2 (second binding event) turned out to be 1.5; the cooperativity factor α3 (third binding event) came out at 0.34.
